Numbering of substitutions follows the chain as printed.
Assays:
Assay in all cases: SPR, antibody captured, C2 as analyte;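 note: biacore SPR at 37 °C, anti-C2 mAbs captured via goat anti-human IgG on CM5 chips, double-referenced sensorgrams fit to a 1:1 kinetic or steady-state model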
[1] = molecular target: T1, human C2 A472S (human, UniProt P06681 21-752)
T1 sequence: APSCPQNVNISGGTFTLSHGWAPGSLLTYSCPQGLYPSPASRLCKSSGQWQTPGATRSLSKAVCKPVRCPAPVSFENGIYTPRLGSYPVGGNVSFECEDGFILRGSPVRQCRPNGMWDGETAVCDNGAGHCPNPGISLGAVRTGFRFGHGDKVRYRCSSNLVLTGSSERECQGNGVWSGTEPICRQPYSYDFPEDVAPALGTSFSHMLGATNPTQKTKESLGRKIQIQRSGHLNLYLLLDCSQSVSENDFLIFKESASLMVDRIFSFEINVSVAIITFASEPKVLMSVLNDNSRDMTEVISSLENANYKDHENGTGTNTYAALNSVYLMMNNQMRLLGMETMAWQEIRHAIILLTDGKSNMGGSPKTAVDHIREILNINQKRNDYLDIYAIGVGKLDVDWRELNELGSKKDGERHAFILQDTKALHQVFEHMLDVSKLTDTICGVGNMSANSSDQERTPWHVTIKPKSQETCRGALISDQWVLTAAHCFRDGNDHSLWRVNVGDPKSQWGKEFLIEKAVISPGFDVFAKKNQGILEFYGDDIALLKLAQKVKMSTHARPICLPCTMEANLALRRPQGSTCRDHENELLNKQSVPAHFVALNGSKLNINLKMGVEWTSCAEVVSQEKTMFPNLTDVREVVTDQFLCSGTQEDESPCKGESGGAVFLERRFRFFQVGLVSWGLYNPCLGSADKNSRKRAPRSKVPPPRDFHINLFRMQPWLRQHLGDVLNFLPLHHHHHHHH

[2] = molecular target: T2, human C2 T647A (human, UniProt P06681 21-752)
T2 sequence: T1 sequence with S452A, T627A

[3] = molecular target: T3, human C2 E476A (human, UniProt P06681 21-752)
T3 sequence: T1 sequence with S452A, E456A

[4] = molecular target: T4, human C2 M452A (human, UniProt P06681 21-752)
T4 sequence: T1 sequence with M432A, S452A

B1: RF16-226 (antibody, human IgG4 S228P, lambda)
heavy: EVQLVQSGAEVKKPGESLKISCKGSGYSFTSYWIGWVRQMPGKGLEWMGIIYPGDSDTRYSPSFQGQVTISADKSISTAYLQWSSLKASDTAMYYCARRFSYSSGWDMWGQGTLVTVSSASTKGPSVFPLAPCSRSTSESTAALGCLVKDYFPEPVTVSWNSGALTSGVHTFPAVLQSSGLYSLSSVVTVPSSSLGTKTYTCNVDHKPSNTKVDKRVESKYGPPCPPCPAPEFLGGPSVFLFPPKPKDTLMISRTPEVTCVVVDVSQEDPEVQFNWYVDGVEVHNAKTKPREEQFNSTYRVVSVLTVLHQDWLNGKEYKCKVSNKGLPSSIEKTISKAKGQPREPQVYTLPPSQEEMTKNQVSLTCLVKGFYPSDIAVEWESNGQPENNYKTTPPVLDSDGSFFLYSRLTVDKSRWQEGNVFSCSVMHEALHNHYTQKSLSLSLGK
light: SYELTQPPSVSVSPGQTARITCSGDALTSKYVAWYQQKSGLAPLLVIYEDTRRPSGIPAKFSGSSSGSVATLTISGAHGDDEADYYCYSTDASGHQRVFGGGTKLTVLSQPKAAPSVTLFPPSSEELQANKATLVCLISDFYPGAVTVAWKADGSPVKAGVETTKPSKQSNNKYAASSYLSLTPEQWKSHRSYSCQVTHEGSTVEKTVAPTECS
notes: pH-dependent anti-C2 antibody from a phage display library; also called WT
Kd [1]: 53 nM
Kd [2]: 147 nM
Kd [3]: 19.6 nM
Kd [4]: 4.1 nM
